For this data set, the system named is Rho Y80C (Escherichia coli). The data set can be described thus: EMSA. The following applies: 37 C, 1 mM ATP, 25 mM Tris-Cl pH 8.0, 50 mM KCl, 5 mM MgCl2, 1 mM DTT, 37 C (or 4 C), 15 min, 0.8% agarose 0.5x TBE, 5 nM DNA. In general terms: In EMSA bound probe runs differently from free probe, usually more slowly.

Usually Kd stands for the equilibrium constant for the complex coming apart. On to 3.5 kb linear dsDNA, for which the dissociation constant (Kd) (5 mM Mg2+) was found to be 180 nM.

Take pBR322: the binding signal (fold weaker than WT) was found to be 7.

Values taken from publication PMC12133298.
